In the data set the target is CD19 extracellular domain (Homo sapiens, UniProt P15391 20-291). Description: flow cytometry on protein-coated beads; PBS, 37 C; PBS, 37 C, 30 min, three PBS washes; bead flow cytometry, random ssDNA pool as background; pH not stated. Particulars: protein: commercial; label: FITC (flow cytometry); Cy3 (confocal); FITC at 5' end in selection primer. (A flow cytometer gives signals particle by particle.)

By Kd is commonly meant the equilibrium constant for the complex coming apart. High values mean lower affinity, low ones higher affinity.

CD19 extracellular domain, sequence (P15391 20-291): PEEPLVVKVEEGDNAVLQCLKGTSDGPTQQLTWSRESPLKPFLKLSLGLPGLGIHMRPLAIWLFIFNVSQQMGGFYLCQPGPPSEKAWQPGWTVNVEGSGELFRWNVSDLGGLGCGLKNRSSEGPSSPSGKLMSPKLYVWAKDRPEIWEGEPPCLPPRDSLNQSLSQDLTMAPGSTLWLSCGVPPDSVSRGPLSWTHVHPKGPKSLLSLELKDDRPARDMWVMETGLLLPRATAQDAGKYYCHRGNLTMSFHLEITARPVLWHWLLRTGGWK

B1: LC1 (ssDNA)
DNA: TGCGTGTGTAGTGTGTCTGTTCTCCTTTTTTTGGTTGCTGCTCTTAGGGATTTGGGCGG
Regarding B1, the Kd was 85.4 nM.

For the origin of these results see PMC6003574, “Selection of a novel CD19 aptamer for targeted delivery of doxorubicin to lymphoma cells”.
